Experimental data as given in US20220251235A1 (published 2022).

Experiments:
[1] = target: T1, MAGEA10 peptide on HLA-A*02:04 (human); assay: cytokine release
T1 peptide: SLLKFLAKV

peptide on HLA-A*02:01 = target: T2, peptide on HLA-A*02:01 (human); assay: cytokine release
T2 peptide: KLYGLDWAEL

[2] = target: T3, MAGEA10 peptide on HLA-A*02:01 (human); assay: multimer staining
T3 peptide: SLLKFLAKV

- binding result [1]: recognises
- binding result (peptide on HLA-A*02:01): no recognition
- binding result [2]: recognises
B1: MAGE-A10^SLL-TCR (TCR, V domains shown)
Valpha: DQQVKQNSPSLSVQEGRISILNCDYTNSMFDYFLWYKKYPAEGPTFLISISSIKDKNEDGRFTVFLNKSAKHLSLHIVPSQPGDSAVYFCAANSNSGYALNFGKGTSLLVTP
Vbeta: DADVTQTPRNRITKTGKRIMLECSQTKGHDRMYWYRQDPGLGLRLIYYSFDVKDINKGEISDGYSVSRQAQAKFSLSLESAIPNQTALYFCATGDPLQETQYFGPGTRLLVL
